4 substances from article PMC3785434 can be followed below.

Holding throughout (experiment): SEC; HiLoad 16/60 Superdex 75, 50 mM sodium phosphate pH 7.4, 50 µg sample, 0.6 mL/min, calibrated with mass standards; self-association of the free light chain (dimer)
Assay [1] has as its target Bence Jones protein from AL-2 patient (human) (UniProt P01701).
Assay [2] deals with recombinant free immunoglobulin lambda light chain of AL amyloidosis patient AL-2 (human) (UniProt P01701).
Assay [3] has as its target recombinant free immunoglobulin lambda light chain of AL amyloidosis patient AL-3 (human) (UniProt P01699).
The target of assay [4] is recombinant free immunoglobulin lambda light chain of AL amyloidosis patient AL-1 (human) (UniProt P01699).

For orientation: stoichiometry N means a count of units in the complex or per binding partner.

In turn, “Bence Jones protein from AL-2 patient (from UniProt P01701 20-117) (natural protein)” showed a stoichiometry N in assay [1] of 2. For “recombinant free immunoglobulin lambda light chain of AL amyloidosis patient AL-2 (from UniProt P01701 20-117)”, the stoichiometry N in assay [2] turned out to be 2. Take “recombinant free immunoglobulin lambda light chain of AL amyloidosis patient AL-3 (from UniProt P01699 20-117)”: in assay [3], the stoichiometry N came out at 2. In the case of “recombinant free immunoglobulin lambda light chain of AL amyloidosis patient AL-1 (from UniProt P01699 20-117)”, the stoichiometry N in assay [4] is 2.
